In article PMC8533160, “First Crystal Structure of Bacterial Oligopeptidase B in an Intermediate State: The Roles of the Hinge Region Modification and Spermine” (Biology, 2021):

Tests used:
[1] = target: T1, PSP (oligopeptidase B from Serratia proteomaculans) (Serratia proteamaculans, UniProt B3VI58); assay: initial rate of BAPNA hydrolysis; assay type: biochemical; conditions: read-out: % inhibition at 5 mM
T1 construct: gene opdB; recombinant from E. coli BL21(DE3); 685 residues with tag; 76 kDa; monomer

[2] = target: T1, PSP (oligopeptidase B from Serratia proteomaculans); assay: differential scanning calorimetry; assay type: binding; conditions: 2 mM spermine; 25 mM Na-phosphate, pH 7.8; 2 mg/mL protein
[3] = test system: N=C(N)NCCC[C@H](NC(=O)[C@H](CCCCN)NC(=O)OCc1ccccc1)C(=O)Nc1ccc([N+](=O)[O-])cc1; assay: purified protein; assay type: biochemical, Serratia proteamaculans; conditions: 0.1 M Tris-HCl, pH 8.0, 2% DMSO, 25 °C
[4] = test system: N=C(N)NCCC[C@H](NC(=O)OCc1ccccc1)C(=O)N[C@@H](CCCNC(=N)N)C(=O)Nc1ccc([N+](=O)[O-])cc1; assay: purified protein; assay type: biochemical, Serratia proteamaculans; conditions: 0.1 M Tris-HCl, pH 8.0, 2% DMSO, 25 °C
[5] = test system: N=C(N)NCCCC(NC(=O)c1ccccc1)C(=O)Nc1ccc([N+](=O)[O-])cc1; assay: purified protein; assay type: biochemical, Serratia proteamaculans; conditions: 0.1 M Tris-HCl, pH 8.0, 2% DMSO, 25 °C

| Compound | inhibition at 5000 µM [1] | dTmax [2] | Km [3] | kcat [3] | kcat/Km [3] | Km [4] | kcat [4] | kcat/Km [4] | Km [5] | kcat [5] | kcat/Km [5] |
| --- | --- | --- | --- | --- | --- | --- | --- | --- | --- | --- | --- |
| NCCCNCCCCNCCCN [spermine] | 20% | 1 degree | – | – | – | – | – | – | – | – | – |
| PSP (oligopeptidase B from Serratia proteomaculans) (Serratia proteamaculans) | – | – | 20.8 µM | 50.8 s⁻¹ | 2.43e+06 M⁻¹ s⁻¹ | 4.35 µM | 36.4 s⁻¹ | 8.35e+06 M⁻¹ s⁻¹ | 78.1 µM | 13.2 s⁻¹ | 168000 M⁻¹ s⁻¹ |
